B1: 4-49 (VHH)
VHH: EVQLVESGGGLVQPGGSLRLSCAASGRTFGDYIMGWFRQAPGKERESVAAINWSAGYTAYADSVKGRFTISADNSKNTAYLQMNSLKPEDTAVYYCARASPNTGWHFDHWGQGTLVTVSS
B2: 4-121 (VHH)
VHH: EVQLVESGGGLVQPGGSLRLSCAASGTAASFNPMGWFRQAPGKEREFVAAITSGGSTNYADSVKGRFTISADNSKNTAYLQMNSLKPEDTAVYYCAAIAYEEGVYRWDWGQGTLVTVSS
B3: 4-52 (VHH)
VHH: EVQLVESGGGLVQPGGSLRLSCAASGRSFSNSVMGWFRQAPGKEREFVARITWNGGSTYYADSVKGRFTISADNSKNTAYLQMNSLKPEDTAVYYCATTENPNPRWGQGTLVTVSS
B4: variant 5-56 (Fc fusion)
VHH: EVQLVESGGGLVQPGGSLRLSCAASGRTFSSNMGWFRQAPGKEREFVARIFGGDRTLYADSVKGRFTISADNSKNTAYLQMNSLKPEDTAVYYCADINGDWGQGTLVTVSS
B5: variant 5-55 (Fc fusion)
VHH: EVQLVESGGGLVQPGGSLRLSCAASGIDVNRNAMGWFRQAPGKEREFVAAITWSGGWRYYADSVKGRFTISADNSKNTAYLQMNSLKPEDTAVYYCATTFGDAGIPDQYDFGWGQGTLVTVSS
B6: variant 5-60 (Fc fusion)
VHH: EVQLVESGGGLVQPGGSLRLSCAASGRSFSSHRMGWFRQAPGKEREFVAAIMWSGSHRNYADSVKGRFTISADNSKNTAYLQMNSLKPEDTAVYYCAAIAYEEGVYRWDWGQGTLVTVSS
B7: variant 5-15 (Fc fusion)
VHH: EVQLVESGGGLVQPGGSLRLSCAASGFTFDGAAMGWFRQAPGKEREFVATIRWTNSTDYADSVKGRFTISADNSKNTAYLQMNSLKPEDTAVYYCARGRYGIVERWGQGTLVTVSS
B8: variant 5-49 (Fc fusion)
VHH: EVQLVESGGGLVQPGGSLRLSCAASGRTSTVNGMGWFRQAPGKEREFVASISQSGAATAYADSVKGRFTISADNSKNTAYLQMNSLKPEDTAVYYCAADRTYSYSSTGYYWGQGTLVTVSS
B9: variant 5-47 (Fc fusion)
VHH: EVQLVESGGGLVQPGGSLRLSCAASGFTFGSYDMGWFRQAPGKEREFVTAINWSGARTAYADSVKGRFTISADNSKNTAYLQMNSLKPEDTAVYYCAARSVYSYEYNWGQGTLVTVSS
B10: variant 5-29 (Fc fusion)
VHH: EVQLVESGGGLVQPGGSLRLSCAASGFTFDDYPMGWFRQAPGKEREGVASVLRGGYTWYADSVKGRFTISADNSKNTAYLQMNSLKPEDTAVYYCAKDWATGLAWGQGTLVTVSS
B11: variant 5-67 (Fc fusion)
VHH: EVQLVESGGGLVQPGGSLRLSCAASGFNVNDYAMGWFRQAPGKEREFVAGITSSVGVTNYADSVKGRFTISADNSKNTAYLQMNSLKPEDTAVYYCAADIFFVNWGRGTLVTVSS
B12: variant 6-20 (Fc fusion)
VHH: EVQLVESGGGLVQPGGSLRLSCAASGSTLPYHAMGWFRQAPGKEREFVAAITWNGASTSYADSVKGRFTISADNSKNTAYLQMNSLKPEDTAVYYCARDRYYDTSASYFESETWGQGTLVTVSS
notes: VHH-Fc
B13: variant 6-73 (Fc fusion)
VHH: EVQLVESGGGLVQPGGSLRLSCAASGHTFSGYAMGWFRQAPGKEREFVAVITREGSTYYADSVKGRFTISADNSKNTAYLQMNSLKPEDTAVYYCARLGGEGFDYWGQGTLVTVSS
notes: VHH-Fc
B14: variant 6-76 (Fc fusion)
VHH: EVQLVESGGGLVQPGGSLRLSCAASGLAFDFDGMGWFRQAPGKEREGVAAINSGGSTYYADSVKGRFTISADNSKNTAYLQMNSLKPEDTAVYYCARFFRAHDYWGQGTLVTVSS
notes: VHH-Fc
B15: variant 6-26 (Fc fusion)
VHH: EVQLVESGGGLVQPGGSLRLSCAASGDTFSTSWMGWFRQAPGKEREFVATINTGGGTNYADSVKGRFTISADNSKNTAYLQMNSLKPEDTAVYYCARVTTSFDYWGQGTLVTVSS
notes: VHH-Fc
B16: variant 6-60 (Fc fusion)
VHH: EVQLVESGGGLVQPGGSLRLSCAASGDTYGSYWMGWFRQAPGKEREFVATISQSGAATAYADSVKGRFTISADNSKNTAYLQMNSLKPEDTAVYYCAGLLRYSGTYYDAFDVWGQGTLVTVSS
notes: VHH-Fc
B17: variant 6-55 (Fc fusion)
VHH: EVQLVESGGGLVQPGGSLRLSCAASGFTMSSSWMGWFRQAPGKEREFVARITSGGSTGYADSVKGRFTISADNSKNTAYLQMNSLKPEDTAVYYCASVDGYFDYWGQGTLVTVSS
notes: VHH-Fc
B18: variant 6-78 (Fc fusion)
VHH: EVQLVESGGGLVQPGGSLRLSCAASGRTYDAMGWFRQAPGKEREFVASVTSGGYTHYADSVKGRFTISADNSKNTAYLQMNSLKPEDTAVYYCAKFGRKIVGATELDYWGQGTLVTVSS
notes: VHH-Fc
B19: variant 6-20 (Fc fusion)
VHH: B12 VHH
B20: variant 6-73 (Fc fusion)
VHH: B13 VHH
B21: variant 6-76 (Fc fusion)
VHH: B14 VHH
B22: variant 6-26 (Fc fusion)
VHH: B15 VHH
B23: variant 6-60 (Fc fusion)
VHH: B16 VHH
B24: variant 6-55 (Fc fusion)
VHH: B17 VHH
B25: variant 6-78 (Fc fusion)
VHH: B18 VHH

One assay deals with human ACE2 (human, UniProt Q9BYF1 18-740).
Chain of human ACE2 (Q9BYF1 18-740 limits assumed): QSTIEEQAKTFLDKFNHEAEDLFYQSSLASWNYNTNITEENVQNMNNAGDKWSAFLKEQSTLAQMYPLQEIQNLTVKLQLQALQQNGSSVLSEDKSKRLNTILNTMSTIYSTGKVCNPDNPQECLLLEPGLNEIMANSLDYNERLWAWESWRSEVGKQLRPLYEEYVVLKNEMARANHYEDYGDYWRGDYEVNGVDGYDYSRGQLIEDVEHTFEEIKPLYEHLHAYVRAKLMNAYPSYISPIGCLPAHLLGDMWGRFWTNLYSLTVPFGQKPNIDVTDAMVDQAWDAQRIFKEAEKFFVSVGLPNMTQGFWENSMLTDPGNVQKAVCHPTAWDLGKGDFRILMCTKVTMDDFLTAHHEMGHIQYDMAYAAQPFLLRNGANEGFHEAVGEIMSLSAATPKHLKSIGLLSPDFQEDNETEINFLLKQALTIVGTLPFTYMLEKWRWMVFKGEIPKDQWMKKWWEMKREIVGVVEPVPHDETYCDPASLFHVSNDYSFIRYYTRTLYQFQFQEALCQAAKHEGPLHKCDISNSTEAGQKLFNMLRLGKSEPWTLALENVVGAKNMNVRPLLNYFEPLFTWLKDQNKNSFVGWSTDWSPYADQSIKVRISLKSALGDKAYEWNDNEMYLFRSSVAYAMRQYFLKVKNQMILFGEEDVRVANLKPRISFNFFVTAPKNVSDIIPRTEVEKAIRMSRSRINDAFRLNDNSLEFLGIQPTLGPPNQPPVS
Assay: not given
In the case of B1, half-maximal inhibition (IC50) required 58 nM.

Take B2: the concentration for half-maximal inhibition (IC50) was determined as 0.91 nM. This IC50 lies about 64-fold lower than the previous one.

In turn, B3 displayed an IC50 of 0.35 nM.

A further assay concerns the target T1, SARS-COV2-S1 RBD (mouse IgG2Fc tag) (SARS-CoV-2, UniProt P0DTC2 319-537).
Assay: not given
Turning to B4, the IC50 came out at 0.68 nM.

For the molecule B5, 1.45 nM corresponded to half-maximal inhibition (IC50).

In turn, B6 came in with an IC50 of 2.15 nM.

B7 showed an IC50 of 2.19 nM.

B8 showed an IC50 of 5.61 nM. Compared with the last molecule, the IC50 is about 2.6-fold higher.

As for B9, the IC50 was 0.8 nM.

With B10, half-maximal inhibition (IC50) required 2.19 nM. Compared with the last molecule, the IC50 is about 2.7-fold higher.

In the case of B11, half-maximal inhibition (IC50) was put at 0.76 nM.

In the next assay the target is T2, Acro SARS-CoV-2 (COVID-19) S1 protein (SARS-CoV-2, UniProt P0DTC2 16-685).
T2 construct: also called SARS-CoV-2 S1
The experiment in a line: SPR.
In the case of B12, the Kd amounted to 20.9 nM.

Consider B13, for which the dissociation constant (Kd) is 103 nM. Compared with the last molecule, the Kd is about 4.9-fold higher.

With B14, binding was characterised by a dissociation constant (Kd) of 33.5 nM. This Kd is about 3.1-fold lower than that of the molecule before.

B15 came in with a Kd of 38.7 nM.

B16 returned a Kd of 20.1 nM.

Turning to B17, the dissociation constant (Kd) worked out at 25.2 nM.

Consider B18, for which the affinity, expressed as Kd, was 18.9 nM.

The target in a further assay is T3, Acro SARS-CoV-2 (COVID-19) S1 protein (SARS-CoV-2, UniProt P0DTC2 16-685).
T3 construct: also called SARS-CoV-2 S1
The experiment in a line: SPR.
In turn, B4 returned a Kd of 54.3 nM.

For the molecule B6, the Kd was 29.4 nM.

In turn, B19 showed a Kd of 20.9 nM.

Take B20: the dissociation constant Kd turned out to be 103 nM. This Kd is about 4.9-fold higher than that of the molecule before.

B21 came in with a Kd of 33.5 nM. This Kd is about 3.1-fold lower than that of the molecule before.

As for B9, the Kd amounted to 27.7 nM. The Kd values of the last two molecules are within 1.5-fold of each other.

In turn, B22 yielded a Kd of 38.7 nM. The Kd values of the last two molecules are within 1.5-fold of each other.

Regarding B23, the dissociation constant Kd was determined as 20.1 nM.

B24 registered a dissociation constant (Kd) of 25.2 nM.

B25 registered a Kd of 18.9 nM. This Kd and that of the molecule before are within 1.5-fold of each other.

The molecule B11 had a Kd of 22.1 nM.

The next assay addresses SARS-CoV-2 spike on live SARS-CoV-2 virus (SARS-CoV-2, UniProt P0DTC2 14-1273). Briefly: cell-based or functional assay.
Consider B4, for which the 80% effect concentration (EC80) is 105 µg/mL.

Regarding B9, the “EC80” value amounted to 2.46 µg/mL.

Take B11: it took 1.57 µg/mL to reach the 80% level (EC80).

Another assay deals with SARS-COV2-S1 RBD (mouse IgG2Fc tag) (SARS-CoV-2, UniProt P0DTC2 319-537). The experiment in a line: FACS, S1 RBD-mFc on Vero E6 (ACE2).
On to B12, for which the “Competition Factor” value was 9.95.

On to B13, for which the “Competition Factor” value is 7.99.

With B14, the “Competition Factor” value is 9.96.

Turning to B15, the “Competition Factor” value worked out at 6.41.

Consider B16, for which the “Competition Factor” value turned out to be 12.6.

Take B17: the “Competition Factor” value is 7.98.

Regarding B18, the “Competition Factor” value turned out to be 9.27.

For a further assay, the target named is T1, SARS-COV2-S1 RBD (mouse IgG2Fc tag). The experiment in a line: FACS, blocks S1 RBD-mFc binding to ACE2 on Vero E6.
Turning to B19, the IC50 amounted to 0.76 nM.

In turn, B20 displayed a concentration for half-maximal inhibition (IC50) of 1.01 nM.

As for B21, the IC50 came to 1.11 nM.

On to B22, for which the IC50 is 1.07 nM.

On to B23, for which the 50% inhibitory concentration (IC50) is 1.31 nM. This IC50 and that of the molecule before are within 1.5-fold of each other.

In turn, B24 showed a 50% inhibitory concentration (IC50) of 0.97 nM.

B25 showed an IC50 of 0.743 nM.

Another assay shares this target. The experiment in a line: column not explained; likely FACS, S1 RBD on Vero E6.
In the case of B19, the “MFI Fold Decrease” value came out at 9.95 fold.

With B20, the “MFI Fold Decrease” value was determined as 7.99 fold.

For B21, the “MFI Fold Decrease” value turned out to be 9.96 fold.

Take B22: the “MFI Fold Decrease” value was found to be 6.41 fold.

For B23, the “MFI Fold Decrease” value worked out at 12.6 fold.

Regarding B24, the “MFI Fold Decrease” value came to 7.98 fold.

With B25, the “MFI Fold Decrease” value turned out to be 9.27 fold.

Source of the values: patent publication US20210355194A1 (TWIST BIOSCIENCE, published 2021).
